From article doi:10.1101/2021.02.07.430181

Key:
Assay in all cases: SAXS
[1] = target: TrK13-A578S (truncated and strep-tagged recombinant PfKelch13 with A578S) (P. falciparum 3D7)
[2] = target: TrK13-C580Y (truncated and strep-tagged recombinant PfKelch13 with C580Y) (P. falciparum 3D7)
[3] = target: TrK13-R539T (truncated and strep-tagged recombinant PfKelch13 with R539T) (P. falciparum 3D7)
[4] = target: TrK13-WT (truncated and strep-tagged recombinant PfKelch13, wild type) (P. falciparum 3D7)

With “TrK13-A578S (truncated and strep-tagged recombinant PfKelch13 with A578S) (domain or fragment)” the stoichiometry N [1] was 6.
Work on “TrK13-C580Y (truncated and strep-tagged recombinant PfKelch13 with C580Y) (domain or fragment)” yielded a stoichiometry N [2] of 6.
In the case of “TrK13-R539T (truncated and strep-tagged recombinant PfKelch13 with R539T) (domain or fragment)”, the stoichiometry N [3] is reported as 6.
“TrK13-WT (truncated and strep-tagged recombinant PfKelch13, wild type) (domain or fragment)” gave a stoichiometry N [4] of 6.
